We go through 1 substance from publication doi:10.1101/2024.06.06.597810.

The test has as its target Biotin-labeled MHV stem helix peptide (MHV). The test can be described thus: BLI.

What is called Kd is the free concentration of one partner at which half of the binding sites on the other are occupied at equilibrium, for simple one-to-one binding. Read a high Kd as lower affinity. As to S2P6 WT Fab, the dissociation constant Kd is 70.4 nM.
